Experimental findings from patent US20250154275A1 (SHANGHAI JUNSHI BIOSCIENCES, published 2025) are described below.

Usually EC50 stands for the concentration at which the effect is half-maximal.

The target of assay [1] is T1, CD20 on the surface of Raji cells (human, UniProt P11836 1-297).
T1 construct: whole, on cells; Raji cells are described as human B lymphoma cells, CD20 positive; also called human CD20
T1 sequence (looked up): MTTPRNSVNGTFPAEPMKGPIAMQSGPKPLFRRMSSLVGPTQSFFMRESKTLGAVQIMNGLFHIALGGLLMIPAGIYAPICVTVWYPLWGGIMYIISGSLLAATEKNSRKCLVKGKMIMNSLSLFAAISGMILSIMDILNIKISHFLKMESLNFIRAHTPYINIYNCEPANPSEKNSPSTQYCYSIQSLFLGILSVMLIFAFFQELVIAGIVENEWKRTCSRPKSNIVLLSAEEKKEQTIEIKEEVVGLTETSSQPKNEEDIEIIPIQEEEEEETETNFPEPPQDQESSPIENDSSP
Kind of assay: flow cytometry on Raji cells (CD20 positive), fluorescent secondary antibody, µg/mL is the unit of the axis; fit value of a flat curve.

For assay [2], the target named is T1, CD20 on the surface of Raji cells. Put plainly: flow cytometry on Raji cells (CD20 positive), MFI dose curve. Background: A flow cytometer gives signals particle by particle.
Assay [3] has as its target T2, human CD3 on the surface of Jurkat cells (human, UniProt P07766 23-207; P04234 22-171; P09693 23-182).
T2 construct: whole, on cells
Kind of assay: flow cytometry on Jurkat cells (CD3-positive), MFI dose curve.

The target of assay [4] is T3, cynomolgus monkey CD3e overexpressed on the surface of CHO cells (cynomolgus monkey, UniProt Q95LI5 22-198).
T3 construct: whole, on cells; also called CHO Cyno CD3e cells
T3 sequence (Q95LI5 22-198): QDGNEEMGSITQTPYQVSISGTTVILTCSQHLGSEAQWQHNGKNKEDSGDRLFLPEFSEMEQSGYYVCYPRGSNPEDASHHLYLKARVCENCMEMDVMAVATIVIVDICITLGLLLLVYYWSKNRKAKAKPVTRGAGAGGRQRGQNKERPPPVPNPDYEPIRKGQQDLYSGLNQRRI
Put plainly: flow cytometry on CHO cells overexpressing cynomolgus monkey CD3e.

Assay [5] has as its target T4, recombinant human CD3ε (Novoprotein, C578) (human, UniProt P07766 23-126).
T4 construct: Bought protein coated on the ELISA plate
Put plainly: ELISA, plate coated with recombinant human CD3ε, anti-human IgG4 Fc-HRP detection. (In an ELISA, binding on a coated surface is turned into a signal by an enzyme label.)

Assay [6] has as its target T3, cynomolgus monkey CD3e overexpressed on …. Kind of assay: flow cytometry on CHO cells overexpressing cynomolgus monkey CD3e, fluorescent secondary antibody.

Changes are numbered by the printed parent chain.

T2 sequence (P07766 23-207, chain 1 of 3): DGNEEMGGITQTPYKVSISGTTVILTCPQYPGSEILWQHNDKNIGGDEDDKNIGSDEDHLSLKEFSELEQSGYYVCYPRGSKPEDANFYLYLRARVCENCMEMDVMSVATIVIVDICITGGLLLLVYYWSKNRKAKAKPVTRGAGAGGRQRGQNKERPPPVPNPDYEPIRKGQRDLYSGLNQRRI
T2 sequence (P04234 22-171, chain 2 of 3): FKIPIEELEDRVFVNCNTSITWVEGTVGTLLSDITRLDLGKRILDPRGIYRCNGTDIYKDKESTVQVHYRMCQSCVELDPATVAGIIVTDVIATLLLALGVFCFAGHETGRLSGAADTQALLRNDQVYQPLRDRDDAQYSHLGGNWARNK
T2 sequence (P09693 23-182, chain 3 of 3): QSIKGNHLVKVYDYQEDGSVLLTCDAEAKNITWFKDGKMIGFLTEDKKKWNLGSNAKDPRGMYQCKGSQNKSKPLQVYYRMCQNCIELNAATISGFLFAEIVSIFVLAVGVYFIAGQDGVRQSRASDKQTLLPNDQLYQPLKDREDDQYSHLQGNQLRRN
T4 sequence (P07766 23-126 limits assumed): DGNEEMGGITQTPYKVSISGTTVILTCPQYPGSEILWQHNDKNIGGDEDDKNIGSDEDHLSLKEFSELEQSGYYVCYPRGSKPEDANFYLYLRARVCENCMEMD

In assay [1], Anti-KLH IgG4 (antibody) showed an EC50 of 52 µg/mL.
“REGN1979 (Regeneron Pharmaceuticals) (bispecific antibody)”: the 50% effective concentration (EC50) was 30.1 µg/mL in assay [2] and 4.7 µg/mL in assay [3].

B1: bispecific antibody molecule TZT6 (bispecific antibody, human IgG4 S228P, kappa)
heavy: QVQLVQSGAEVKKPGSSVKVSCKASGYAFSYSWINWVRQAPGQGLEWMGRIFPGDGDTDYNGKFKGRVTITADKSTSTAYMELSSLRSEDTAVYYCARNVFDGYWLVYWGQGTLVTVSSASTKGPSVFPLAPCSRSTSESTAALGCLVKDYFPEPVTVSWNSGALTSGVHTFPAVLQSSGLYSLSSVVTVPSSSLGTKTYTCNVDHKPSNTKVDKRVESKYGPPCPPCPAPEFLGGPSVFLFPPKPKDTLMISRTPEVTCVVVDVSQEDPEVQFNWYVDGVEVHNAKTKPREEQFNSTYRVVSVLTVLHQDWLNGKEYKCKVSNKGLPSSIEKTISKAKGQPREPQVYTLPPCQEEMTKNQVSLWCLVKGFYPSDIAVEWESNGQPENNYKTTPPVLDSDGSFFLYSRLTVDKSRWQEGNVFSCSVMHEALHNHYTQKSLSLSLGK
light: DIVMTQTPLSLPVTPGEPASISCRSSKSLLHSNGITYLYWYLQKPGQSPQLLIYQMSNLVSGVPDRFSGSGSGTDFTLKISRVEAEDVGVYYCAQNLELPYTFGGGTKVEIKRTVAAPSVFIFPPSDEQLKSGTASVVCLLNNFYPREAKVQWKVDNALQSGNSQESVTEQDSKDSTYSLSSTLTLSKADYEKHKVYACEVTHQGLSSPVTKSFNRGEC
chain: QAVVTQEPSLTVSPGGTVTLTCRSSTGAVTTSNYANWVQQKPGQAPRGLIGGTNKRAPGTPARFSGSLLGGKAALTLSGVQPEDEAEYYCALWYSNLWVFGCGTKLTVLGGGGSGGGGSGGGGSGGGGSEVQLVESGGGLVQPGGSLKLSCAASGFTFSTYAMNWVRQAPGKCLEWVGRIRSKYNNYATYYADSVKDRFTISRDDSKNSLYLQMNSLKTEDTAVYYCVRHGNFGNSYVSWFAYWGQGTLVTVSSGGGGSGGGGSESKYGPPCPPCPAPEFLGGPSVFLFPPKPKDTLMISRTPEVTCVVVDVSQEDPEVQFNWYVDGVEVHNAKTKPREEQFNSTYRVVSVLTVLHQDWLNGKEYKCKVSNKGLPSSIEKTISKAKGQPREPQVCTLPPSQEEMTKNQVSLSCAVKGFYPSDIAVEWESNGQPENNYKTTPPVLDSDGSFFLVSRLTVDKSRWQEGNVFSCSVMHEALHNRFTQKSLSLSLGK
notes: also called anti-CD3/CD20 bispecific antibody TZT6
B1: the binding result in assay [4] is on record as “binds”. Besides, the EC50 came to 3.67 µg/mL in assay [2], 4.44 µg/mL in assay [3] and 0.0214 µg/mL in assay [5].

B2: bispecific antibody molecule TZT7 (bispecific antibody, human IgG4 S228P, kappa)
heavy: B1 heavy with Y348C, C353S, W365S, L367A, Y406V, H434R, Y435F
light: B1 light
chain: QVQLVQSGAEVKKPGSSVKVSCKASGYAFSYSWINWVRQAPGQGLEWMGRIFPGDGDTDYNGKFKGRVTITADKSTSTAYMELSSLRSEDTAVYYCARNVFDGYWLVYWGQGTLVTVSSASTKGPSVFPLAPCSRSTSESTAALGCLVKDYFPEPVTVSWNSGALTSGVHTFPAVLQSSGLYSLSSVVTVPSSSLGTKTYTCNVDHKPSNTKVDKRVASGGGGSGGGGSQAVVTQEPSLTVSPGGTVTLTCRSSTGAVTTSNYANWVQQKPGQAPRGLIGGTNKRAPGTPARFSGSLLGGKAALTLSGVQPEDEAEYYCALWYSNLWVFGCGTKLTVLGGGGSGGGGSGGGGSGGGGSEVQLVESGGGLVQPGGSLKLSCAASGFTFSTYAMNWVRQAPGKCLEWVGRIRSKYNNYATYYADSVKDRFTISRDDSKNSLYLQMNSLKTEDTAVYYCVRHGNFGNSYVSWFAYWGQGTLVTVSSGGGGSGGGGSESKYGPPCPPCPAPEFLGGPSVFLFPPKPKDTLMISRTPEVTCVVVDVSQEDPEVQFNWYVDGVEVHNAKTKPREEQFNSTYRVVSVLTVLHQDWLNGKEYKCKVSNKGLPSSIEKTISKAKGQPREPQVYTLPPCQEEMTKNQVSLWCLVKGFYPSDIAVEWESNGQPENNYKTTPPVLDSDGSFFLYSRLTVDKSRWQEGNVFSCSVMHEALHNHYTQKSLSLSLGK
notes: IgG4 Fc (G4 FC in the vector's name); also called anti-CD3/CD20 bispecific antibody TZT7
As to B2, the binding result in assay [4] was “binds”. In addition, the EC50 in assay [2] turned out to be 0.515 µg/mL; in assay [3] it was 26.6 µg/mL; in assay [5] it was 0.0856 µg/mL.

B3: JSCD3 (antibody, human IgG4 S228P, kappa, V domains shown)
VH: EVQLVESGGGLVQPGGSLKLSCAASGFTFSTYAMNWVRQAPGKGLEWVGRIRSKYNNYATYYADSVKDRFTISRDDSKNSLYLQMNSLKTEDTAVYYCVRHGNFGNSYVSWFAYWGQGTLVTVSS
VL: QAVVTQEPSLTVSPGGTVTLTCRSSTGAVTTSNYANWVQQKPGQAPRGLIGGTNKRAPGTPARFSGSLLGGKAALTLSGVQPEDEAEYYCALWYSNLWVFGGGTKLTVLR
notes: humanized from murine SP34; also called humanized anti-CD3 antibody JSCD3; positive control
Turning to B3, the binding result in assay [6] is listed as “binds”.
